Values of other authors as cited in paper PMC2919054.
pKd: −log10 of the molar value.

Target: ILT7 (Homo sapiens) (UniProt P59901)
Assay: SPR

UniProt P59901, sequence (P59901 24-499): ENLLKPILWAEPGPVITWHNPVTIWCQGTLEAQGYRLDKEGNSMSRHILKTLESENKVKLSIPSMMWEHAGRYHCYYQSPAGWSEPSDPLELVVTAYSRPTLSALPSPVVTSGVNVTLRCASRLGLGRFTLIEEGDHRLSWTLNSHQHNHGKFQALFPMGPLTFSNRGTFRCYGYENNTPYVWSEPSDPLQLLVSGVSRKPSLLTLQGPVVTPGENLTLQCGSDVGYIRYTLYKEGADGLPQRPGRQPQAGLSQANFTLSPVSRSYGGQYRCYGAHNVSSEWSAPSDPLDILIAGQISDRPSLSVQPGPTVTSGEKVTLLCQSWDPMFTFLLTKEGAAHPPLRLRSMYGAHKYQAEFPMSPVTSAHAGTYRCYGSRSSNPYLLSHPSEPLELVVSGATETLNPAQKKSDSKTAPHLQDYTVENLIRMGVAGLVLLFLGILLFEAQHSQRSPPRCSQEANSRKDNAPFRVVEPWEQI

pKd: 6.00
Substance: BST2 (from UniProt Q10589)
